Molecular target: T1, Ecm9 (recombinant, subunit of yeast GGT3) (budding yeast (S. cerevisiae), UniProt Q02202 1-377)
T1 construct: Ecm9, budding yeast; no tag is named for this chain; also called recombinant yeast GGT3 α subunit
T1 sequence (looked up): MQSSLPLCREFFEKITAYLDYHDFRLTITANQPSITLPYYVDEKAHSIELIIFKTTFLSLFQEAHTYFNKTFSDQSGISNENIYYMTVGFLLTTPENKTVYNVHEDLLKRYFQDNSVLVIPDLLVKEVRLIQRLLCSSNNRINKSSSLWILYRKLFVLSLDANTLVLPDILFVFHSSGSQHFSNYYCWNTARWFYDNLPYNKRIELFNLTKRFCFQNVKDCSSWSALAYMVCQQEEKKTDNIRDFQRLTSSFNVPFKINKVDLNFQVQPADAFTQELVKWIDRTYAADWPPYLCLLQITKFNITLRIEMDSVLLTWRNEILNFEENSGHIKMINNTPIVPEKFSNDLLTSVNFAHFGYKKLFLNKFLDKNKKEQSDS
Assay: SEC; Ecm9 and GST-Bet2 co-expressed in ExpiSf cells and co-purified (glutathione Sepharose, GST cleaved, MonoQ), then Superdex 200 Increase gel filtration in buffer A (50 mM HEPES-KOH pH 7.4, 50 mM NaCl, 5 mM MgCl2, 1 mM DTT); SDS-PAGE with Coomassie staining
Conditions: both partners purified

B1: Bet2 (recombinant, subunit of yeast GGT3) (natural protein, budding yeast (S. cerevisiae), UniProt P20133 1-325, looked up)
chain: MSGSLTLLKEKHIRYIESLDTKKHNFEYWLTEHLRLNGIYWGLTALCVLDSPETFVKEEVISFVLSCWDDKYGAFAPFPRHDAHLLTTLSAVQILATYDALDVLGKDRKVRLISFIRGNQLEDGSFQGDRFGEVDTRFVYTALSALSILGELTSEVVDPAVDFVLKCYNFDGGFGLCPNAESHAAQAFTCLGALAIANKLDMLSDDQLEEIGWWLCERQLPEGGLNGRPSKLPDVCYSWWVLSSLAIIGRLDWINYEKLTEFILKCQDEKKGGISDRPENEVDVFHTVFGVAGLSLMGYDNLVPIDPIYCMPKSVTSKFKKYPYK
notes: Bet2, budding yeast; also called GST-BET2; recombinant yeast GGT3 β subunit; not shown: GST, N-terminal, cleaved
  binding result: binds

— paper PMC12001115, “Double prenylation of budding yeast Ykt6 regulates cell wall integrity and autophagy” (The Journal of Biological Chemistry, 2025)
